The chains are these.
B1: INTS4 (parent)
chain: YSSGEFSSGRKWGDDAPKEEVDTG
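Also: lentivirally expressed fusions sorted by FACS into six bins by GFP to DsRed ratio, PSI derived from sequencing read proportions per bin multiplied by bin number.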

This data set covers variants of B1. Briefly: protein stability index of a GFP-peptide fusion (GPS, HEK-293T) (PSI 1-6); higher = more stable. The conditions noted are these: c terminus: a fixed tail appended.
YSSWEFSSGRKWGDDAPKEEVDTG [G4W]: the protein stability index stood at 2.43.
The result for YSSEEFSSGRKWGDDAPKEEVDTG [G4E] reads 4.08.
Turning to YSSHEFSSGRKWGDDAPKEEVDTG [G4H], the protein stability index came out at 4.42.
On to YSSQEFSSGRKWGDDAPKEEVDTG [G4Q], for which the protein stability index was found to be 3.92.
The same measure for YSSSEFSSGRKWGDDAPKEEVDTG [G4S]: 4.02.
The result for YSSLEFSSGRKWGDDAPKEEVDTG [G4L] reads 3.33.
On to YSSYEFSSGRKWGDDAPKEEVDTG [G4Y], for which the protein stability index came to 3.91.
For the variant YSSFEFSSGRKWGDDAPKEEVDTG [G4F], the protein stability index stood at 3.6.
Take YSSTEFSSGRKWGDDAPKEEVDTG [G4T]: the protein stability index worked out at 3.61.
As to YSSKEFSSGRKWGDDAPKEEVDTG [G4K], the protein stability index was determined as 3.31.
For the variant YSSVEFSSGRKWGDDAPKEEVDTG [G4V], the protein stability index was found to be 3.87.
Regarding YSSNEFSSGRKWGDDAPKEEVDTG [G4N], the protein stability index was found to be 4.01.
The result for YSSMEFSSGRKWGDDAPKEEVDTG [G4M] reads 3.75; that for YSSPEFSSGRKWGDDAPKEEVDTG [G4P], 3.11.
For the variant YSSIEFSSGRKWGDDAPKEEVDTG [G4I], the protein stability index was 4.11.
In the case of YSSDEFSSGRKWGDDAPKEEVDTG [G4D], the protein stability index was found to be 4.57.
YSSREFSSGRKWGDDAPKEEVDTG [G4R]: the protein stability index was 2.22.
The same measure for YSSGDFSSGRKWGDDAPKEEVDTG [E5D]: 3.64; for YSSGLFSSGRKWGDDAPKEEVDTG [E5L]: 2.11.
As to YSSGCFSSGRKWGDDAPKEEVDTG [E5C], the protein stability index was found to be 1.84.
YSSGYFSSGRKWGDDAPKEEVDTG [E5Y]: the protein stability index was determined as 1.04.
The same measure for YSSGMFSSGRKWGDDAPKEEVDTG [E5M]: 2.68; for YSSGSFSSGRKWGDDAPKEEVDTG [E5S]: 3.07; for YSSGRFSSGRKWGDDAPKEEVDTG [E5R]: 2.15.
Take YSSGIFSSGRKWGDDAPKEEVDTG [E5I]: the protein stability index came out at 1.97.
For YSSGHFSSGRKWGDDAPKEEVDTG [E5H], the protein stability index amounted to 2.16.
Turning to YSSGAFSSGRKWGDDAPKEEVDTG [E5A], the protein stability index stood at 2.75.
Consider YSSGNFSSGRKWGDDAPKEEVDTG [E5N], for which the protein stability index is 3.27.
Turning to YSSGKFSSGRKWGDDAPKEEVDTG [E5K], the protein stability index is 2.22.
Turning to YSSGQFSSGRKWGDDAPKEEVDTG [E5Q], the protein stability index was determined as 2.14.
The same measure for YSSGFFSSGRKWGDDAPKEEVDTG [E5F]: 1.76; for YSSGTFSSGRKWGDDAPKEEVDTG [E5T]: 3.55.
YSSGVFSSGRKWGDDAPKEEVDTG [E5V]: the protein stability index was 1.32.
As for YSSGPFSSGRKWGDDAPKEEVDTG [E5P], the protein stability index was 2.95.
With YSSGGFSSGRKWGDDAPKEEVDTG [E5G], the protein stability index came out at 2.78.
Consider YSSGEFSSDRKWGDDAPKEEVDTG [G9D], for which the protein stability index worked out at 3.6.
Regarding YSSGEFSSARKWGDDAPKEEVDTG [G9A], the protein stability index is 1.91.
YSSGEFSSHRKWGDDAPKEEVDTG [G9H]: the protein stability index is 2.43.
Take YSSGEFSSCRKWGDDAPKEEVDTG [G9C]: the protein stability index was determined as 1.75.
The result for YSSGEFSSFRKWGDDAPKEEVDTG [G9F] reads 2.48; that for YSSGEFSSERKWGDDAPKEEVDTG [G9E], 2.76.
The result for YSSGELSSGRKWGDDAPKEEVDTG [F6L] reads 4.24; that for YSSGEPSSGRKWGDDAPKEEVDTG [F6P], 5.56.
The result for YSSGEHSSGRKWGDDAPKEEVDTG [F6H] reads 4.96; that for YSSGESSSGRKWGDDAPKEEVDTG [F6S], 5.16.
With YSSGEISSGRKWGDDAPKEEVDTG [F6I], the protein stability index was 4.67.
With YSSGEASSGRKWGDDAPKEEVDTG [F6A], the protein stability index turned out to be 4.88.
The same measure for YSSGENSSGRKWGDDAPKEEVDTG [F6N]: 5.22.
The same measure for YSSGERSSGRKWGDDAPKEEVDTG [F6R]: 4.63; for YSSGEYSSGRKWGDDAPKEEVDTG [F6Y]: 4.13; for YSSGEMSSGRKWGDDAPKEEVDTG [F6M]: 4.69.
The result for YSSGEQSSGRKWGDDAPKEEVDTG [F6Q] reads 4.96.
Consider YSSGETSSGRKWGDDAPKEEVDTG [F6T], for which the protein stability index is 4.79.
On to YSSGEGSSGRKWGDDAPKEEVDTG [F6G], for which the protein stability index is 4.57.
With YSSGEKSSGRKWGDDAPKEEVDTG [F6K], the protein stability index stood at 4.65.
Turning to YSSGECSSGRKWGDDAPKEEVDTG [F6C], the protein stability index was found to be 5.11.
The result for YSSGEVSSGRKWGDDAPKEEVDTG [F6V] reads 4.99; that for YSSGEDSSGRKWGDDAPKEEVDTG [F6D], 5.75; that for YSSGEFSMGRKWGDDAPKEEVDTG [S8M], 1.6.
With YSSGEFSCGRKWGDDAPKEEVDTG [S8C], the protein stability index is 1.97.
YSSGEFSFGRKWGDDAPKEEVDTG [S8F]: the protein stability index is 2.48.
Consider YSSGEFSQGRKWGDDAPKEEVDTG [S8Q], for which the protein stability index came to 1.89.
The result for YSSGEFSIGRKWGDDAPKEEVDTG [S8I] reads 1.94.
With YSSGEFSHGRKWGDDAPKEEVDTG [S8H], the protein stability index worked out at 2.25.
Take YSSGEFSVGRKWGDDAPKEEVDTG [S8V]: the protein stability index is 1.57.
YSSGEFSAGRKWGDDAPKEEVDTG [S8A]: the protein stability index is 2.75.
Turning to YSSGEFSGGRKWGDDAPKEEVDTG [S8G], the protein stability index was found to be 3.83.
YSSGEFSYGRKWGDDAPKEEVDTG [S8Y]: the protein stability index was 2.59.
Take YSSGEFSPGRKWGDDAPKEEVDTG [S8P]: the protein stability index was 3.25.
The result for YSSGEFSDGRKWGDDAPKEEVDTG [S8D] reads 3.79; that for YSSGEFSRGRKWGDDAPKEEVDTG [S8R], 2.24.
YSSGEFSEGRKWGDDAPKEEVDTG [S8E]: the protein stability index worked out at 3.56.
For the variant YSSGEFSLGRKWGDDAPKEEVDTG [S8L], the protein stability index worked out at 3.21.
Regarding YSSGEFSKGRKWGDDAPKEEVDTG [S8K], the protein stability index worked out at 2.19.
For the variant YSSGEFSTGRKWGDDAPKEEVDTG [S8T], the protein stability index is 2.48.
As for YSSGEFSNGRKWGDDAPKEEVDTG [S8N], the protein stability index came to 2.68.
With YSSGEFRSGRKWGDDAPKEEVDTG [S7R], the protein stability index amounted to 1.8.
With YSSGEFCSGRKWGDDAPKEEVDTG [S7C], the protein stability index stood at 2.32.
The result for YSSGEFKSGRKWGDDAPKEEVDTG [S7K] reads 3.45; that for YSSGEFFSGRKWGDDAPKEEVDTG [S7F], 2.98; that for YSSGEFISGRKWGDDAPKEEVDTG [S7I], 1.96.
Take YSSGEFASGRKWGDDAPKEEVDTG [S7A]: the protein stability index is 1.91.
YSSGEFGSGRKWGDDAPKEEVDTG [S7G]: the protein stability index is 2.75.
The result for YSSGEFESGRKWGDDAPKEEVDTG [S7E] reads 4.21.
For the variant YSSGEFYSGRKWGDDAPKEEVDTG [S7Y], the protein stability index is 2.52.
Take YSSGEFQSGRKWGDDAPKEEVDTG [S7Q]: the protein stability index was determined as 2.69.
YSSGEFVSGRKWGDDAPKEEVDTG [S7V]: the protein stability index was determined as 2.27.
For the variant YSSGEFTSGRKWGDDAPKEEVDTG [S7T], the protein stability index is 3.02.
Take YSSGEFLSGRKWGDDAPKEEVDTG [S7L]: the protein stability index is 2.43.
For YSSGEFPSGRKWGDDAPKEEVDTG [S7P], the protein stability index came out at 1.67.
Regarding YSSGEFMSGRKWGDDAPKEEVDTG [S7M], the protein stability index was 2.17.
In the case of YSSGEFHSGRKWGDDAPKEEVDTG [S7H], the protein stability index turned out to be 1.92.
Consider YSSGEFDSGRKWGDDAPKEEVDTG [S7D], for which the protein stability index amounted to 3.83.
The result for YSSGEFNSGRKWGDDAPKEEVDTG [S7N] reads 3.3.

The values are drawn from the supplement of paper PMC10567573.
